As usually defined, the Kd is the constant that tells how readily two partners part at equilibrium. One may read the koff as a measure of how fast the partners let go of each other. As usually defined, the kon is the rate constant with which the complex forms. As a reminder, the EC50 is the concentration giving half of the maximal effect.

Several values for one entry are separate records, joined by “and”; a condition that tells them apart may be missing. Identical values can stand only once.

This is an account of results in patent publication US20230391872A1 (ANAPTYSBIO, published 2023).

For experiment [1], the target named is T1, cynomolgus monkey BTLA ECD-his (monomeric cynomolgus monkey BTLA-his) (cynomolgus monkey, UniProt A0A2K5W7M7 31-157).
T1 construct: extracellular domain; also called cynomolgus monkey BTLA extracellular domain
T1 sequence: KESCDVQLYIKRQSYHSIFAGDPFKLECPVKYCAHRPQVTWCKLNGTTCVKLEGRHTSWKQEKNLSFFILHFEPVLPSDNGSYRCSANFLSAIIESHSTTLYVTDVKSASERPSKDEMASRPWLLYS
The experiment in a line: Kinetic Exclusion Assay (KinExA 3000), solution phase, 6G3 IgG4 APE10840.04 at 100 pM, cynomolgus monkey BTLA ECD-his titrated. Here is the method: Solution-based affinity measurements of 6G3 IgG4 (APE10840.04 (H Chain SEQ ID NO: 144, L Chain SEQ ID NO: 174)) binding to BTLA were determined on a KinExA 3000 (Sapidyne Instruments). Azlactone beads (ThermoFisher Scientific) were coated with human BTLA ECD-his (30 μg/ml) or cynomolgus monkey BTLA ECD-his (20 μg/ml) in 50 mM Na2CO3 for 2 hours at room temperature and blocked with 10 mg/ml BSA. 6G3 IgG4 APE10840.04 concentration was kept constant at 100 pM for binding in both human and cynomolgus monkey BTLA experiments. Human or cynomolgus monkey BTLA ECD-his was added at 25° C. in 2.5-fold dilutions from 1000 nM to 68 fM. Sample sets were equilibrated at 4° C. for 72 hours and brought to room temperature for 6 hours before capturing free antibody with BTLA-coupled Azlactone beads. […] Maximum and background signals were determined on samples with 6G3 only and buffer only, respectively. Data were analyzed using KinExA Pro Software 3.2.6.
For orientation: Kinetic exclusion samples the free partner from a solution-phase mixture.

In experiment [2] the target is T2, human BTLA ECD-his (monomeric human BTLA-his) (human, UniProt Q7Z6A9 31-157).
T2 construct: extracellular domain; also called human BTLA extracellular domain
T2 sequence (looked up): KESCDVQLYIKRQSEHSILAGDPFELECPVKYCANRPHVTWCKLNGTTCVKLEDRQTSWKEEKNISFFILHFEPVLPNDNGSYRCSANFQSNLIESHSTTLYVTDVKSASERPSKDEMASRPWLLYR
Kind of experiment: SPR, Biacore T200, antibody captured on anti-human IgG, monomeric human BTLA-his as analyte, 25 °C, 1:1 model; 6G3 IgG4 (APE10840.05) captured on the chip; human BTLA-his analyte. How it is done:
Surface plasmon resonance (SPR) analyses were carried out using a Biacore T200 (GE Healthcare Life Sciences). Kinetic constants were determined using a 1:1 binding model in the Biacore T200 Evaluation Software to calculate on- and off-rates (kₐ and kd, respectively), and dissociation constants as a measure of overall affinity (KD). Anti-human IgG (GE Healthcare Life Sciences) was immobilized on a CMS chip using EDC-activated amine coupling chemistry (420 seconds contact at a flow rate of 10 μl/min). Antibodies (APE10585.04 6G3 IgG1 and APE10840.05 6G3 IgG4), each at 0.5 μg/m1) were captured in a 60 second contact with the flow cell using a flow rate of 10 μl/min. Monomeric human BTLA-his or cynomolgus monkey BTLA-his at 60 nM, 20 nM, 6.7 nM and 2.2 nM concentrations was flowed over captured antibody (480 seconds association, 1800 seconds dissociation). Runs were at 25° C. and used buffer containing 10 mM HEPES, pH 7.6, 150 mM NaCl, 3 mM EDTA, 0.05% polysorbate 20 (HBS-EP+, pH 7.6; Teknova) for the mobile phase and all dilutions. At the end of each cycle, bound antigen was removed by regeneration with two successive exposures (60 seconds and 90 seconds) to 3 M MgCl2 (30 μl/min). Sensorgrams and binding constants corresponding to the experiment are shown in FIG. 1 (human BTLA) and FIG. 1 (cynomolgus monkey BTLA). […]
(In SPR one partner is held on a chip, and binding of the other changes the refractive index at the surface.)

In experiment [3] the target is T1, cynomolgus monkey BTLA ECD-his …. The experiment in a line: SPR (Biacore T200), antibody captured on anti-human IgG chip, monomeric BTLA-his flowed at 60, 20, 6.7 and 2.2 nM, 1:1 binding model, 25 C [lower right panel (Cyno BTLA]. How it is done: Surface plasmon resonance (SPR) analyses were carried out using a Biacore T200 (GE Healthcare Life Sciences). Kinetic constants were determined using a 1:1 binding model in the Biacore T200 Evaluation Software to calculate on- and off-rates (kₐ and kd, respectively), and dissociation constants as a measure of overall affinity (KD). Anti-human IgG (GE Healthcare Life Sciences) was immobilized on a CMS chip using EDC-activated amine coupling chemistry (420 seconds contact at a flow rate of 10 μl/min). Antibodies (APE10585.04 6G3 IgG1 and APE10840.05 6G3 IgG4), each at 0.5 μg/m1) were captured in a 60 second contact with the flow cell using a flow rate of 10 μl/min. Monomeric human BTLA-his or cynomolgus monkey BTLA-his at 60 nM, 20 nM, 6.7 nM and 2.2 nM concentrations was flowed over captured antibody (480 seconds association, 1800 seconds dissociation). Runs were at 25° C. and used buffer containing 10 mM HEPES, pH 7.6, 150 mM NaCl, 3 mM EDTA, 0.05% polysorbate 20 (HBS-EP+, pH 7.6; Teknova) for the mobile phase and all dilutions. At the end of each cycle, bound antigen was removed by regeneration with two successive exposures (60 seconds and 90 seconds) to 3 M MgCl2 (30 μl/min). Sensorgrams and binding constants corresponding to the experiment are shown in FIG. 1 (human BTLA) and FIG. 1 (cynomolgus monkey BTLA). Antibody capture levels in resonance units (RU) are listed at the right side of each panel.

The target in experiment [4] is T3, human BTLA on cells (stably transfected 293c18 cells; human peripheral blood T and B cells) (human, UniProt Q7Z6A9 31-289).
T3 construct: whole, on cells; the cells are named under assay; also called cell surface BTLA; full-length human BTLA
Kind of experiment: flow cytometry (MFI) on 293c18 cells stably expressing human BTLA, goat anti-human kappa-PE detection, four-parameter fit [left panel (Hu BTLA 293c18 cells), EC50 box]. Here is the method: 293c18 cell clone 1E4 stably expressing human BTLA construct or clone 1G5 stably expressing cynomolgus monkey BTLA were harvested with Accutase solution (Millipore Sigma/Sigma-Aldrich) and washed once with Phosphate-Buffered Saline, 1% BSA. 293c18 cynomolgus monkey BTLA cells were loaded with the lipophilic carbocyanine dye, DiD (2 μM, 1,1′-dioctadecyl-3,3,3′,3′-tetramenthylindodicarbocyanine; ThermoFisher Scientific) by rocking gently for 10 minutes at room temperature. DiD-stained cells were washed in PBS, 1% BSA and equal amounts of human BTLA 293c18 cells and cynomolgus monkey BTLA 293c18-DiD-stained cells were mixed. Cells (2×10⁵ total cells/sample) were incubated with the indicated concentrations of purified 6G3 IgG4 (two production lots, APE10840.03 and APE10840.04 (H Chain SEQ ID NO: 144, L Chain SEQ ID NO: 174)) or human IgG4 isotype control antibody specific for hen egg lysozyme with gentle shaking for 10 minutes at 4° C. in FACS buffer (PBS, 1% BSA, 0.02% sodium azide). […] Cells were washed and resuspended in FACS buffer and analyzed for fluorescence on a BD FACSArray (BD Biosciences). DiD stained cells expressing cynomolgus monkey BTLA (FIG. 3) were analyzed for median fluorescence intensity (MFI) separately from cells expressing human BTLA (FIG. 3). […]

B1: 6G3 IgG4 anti-BTLA antibody (APE10840 / APE12839 / APE13308) (antibody, V domains shown)
VH: QVQLVQSGAEVKKPGSSVKVSCKASGYVFSTSWMNWVRQAPGQGLEWMGRIYPGDADTNYVGKFKGRVTITADKSTTTAYMELSSLRSEDTAVYFCAKSGTFNFGNYRWYFDVWGKGTTVTVSS
VL: AIQLTQSPSSLSASVGDRVTITCRVSENIYSHLAWYQQKPGKAPKLLIYAATNLALGVPSRFSGSGSGTDYTLTISSLQPEDFATYYCQLFWGPPLTFGGGTKVEIKR
notes: Humanized antibody from a mouse hybridoma, tested as human IgG4 (detected with anti-human kappa); Some assays used labelled lots (DyLight 650, AF647, biotin, DyL488); also called 6G3 antibody; APE10840.03
For B1, in experiment [1], the Kd was about 1.66 nM. The Kd in experiment [2] is about 5 nM. In experiment [3], this molecule gave a Kd of 11.2 nM, a koff of 0.00393 s⁻¹ and a kon of 351000 M⁻¹ s⁻¹. In addition, the EC50 in experiment [4] was 1.69 nM and 1.79 nM.
